Paper PMC3699834

Substrate: N
Test: cells, lysate or membranes
Details: NH4Cl; oocytes clamped at −120 mV; Michaelis–Menten fit

B1: AMT1;3 (Arabidopsis thaliana) (protein)
chain: MSGAITCSAADLATLLGPNATAAADYICGQLGTVNNKFTDAAFAIDNTYLLFSAYLVFAMQLGFAMLCAGSVRAKNTMNIMLTNVLDAAAGGLFYYLFGYAFAFGGSSEGFIGRHNFALRDFPTPTADYSFFLYQWAFAIAAAGITSGSIAERTQFVAYLIYSSFLTGFVYPVVSHWFWSPDGWASPFRSADDRLFSTGAIDFAGSGVVHMVGGIAGLWGALIEGPRRGRFEKGGRAIALRGHSASLVVLGTFLLWFGWYGFNPGSFTKILVPYNSGSNYGQWSGIGRTAVNTTLSGCTAALTTLFGKRLLSGHWNVTDVCNGLLGGFAAITAGCSVVEPWAAIVCGFMASVVLIGCNKLAELVQYDDPLEAAQLHGGCGAWGLIFVGLFAKEKYLNEVYGATPGRPYGLFMGGGGKLLGAQLVQILVIVGWVSATMGTLFFILKRLNLLRISEQHEMQGMDMTRHGGFAYIYHDNDDESHRVDPGSPFPRSATPPRV
Km: 55 ± 15 µM
